The text below walks through data of US20060068468A1 (ACCELERON PHARMA, published 2006).

T1: Activin A (UniProt P08476 311-426)
T1 construct: also called ActA
T1 sequence (looked up): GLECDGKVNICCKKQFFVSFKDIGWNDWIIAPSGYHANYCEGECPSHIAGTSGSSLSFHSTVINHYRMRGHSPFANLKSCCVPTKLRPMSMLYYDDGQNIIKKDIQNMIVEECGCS

T2: GDF-11 (UniProt O95390 299-407)
T2 construct: also called Growth and Differentiation Factor-11; BMP11
T2 sequence (looked up): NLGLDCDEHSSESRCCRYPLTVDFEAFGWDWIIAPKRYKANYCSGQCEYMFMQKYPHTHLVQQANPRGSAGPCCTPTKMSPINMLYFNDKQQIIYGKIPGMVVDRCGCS

B1: ActRIIB-Fc +15tail (Fc fusion)
chain: SGRGEAETRECIYYNANWELERTNQSGLERCEGEQDKRLHCYASWANSSGTIELVKKGCWLDDFNCYDRQECVATEENPQVYFCCCEGNFCNERFTHLPEAGGPEVTYEPPPTAPTGGGTHTCPPCPAPELLGGPSVFLFPPKPKDTLMISRTPEVTCVVVDVSHEDPEVKFNWYVDGVEVHNAKTKPREEQYNSTYRVVSVLTVLHQDWLNGKEYKCKVSNKALPVPIEKTISKAKGQPREPQVYTLPPSREEMTKNQVSLTCLVKGFYPSDIAVEWESNGQPENNYKTTPPVLDSDGSFFLYSKLTVDKSRWQQGNVFSCSVMHEALHNHYTQKSLSLSPGK
notes: also called ActRIIB-Fc with the C-terminal 15 amino acids of the extracellular domain
B2: background ActRIIB-Fc fusion, WT (64A) (Fc fusion)
chain: SGRGEAETRECIYYNANWELERTNQSGLERCEGEQDKRLHCYASWANSSGTIELVKKGCWLDDFNCYDRQECVATEENPQVYFCCCEGNFCNERFTHLPEAGGGTHTCPPCPAPELLGGPSVFLFPPKPKDTLMISRTPEVTCVVVDVSHEDPEVKFNWYVDGVEVHNAKTKPREEQYNSTYRVVSVLTVLHQDWLNGKEYKCKVSNKALPVPIEKTISKAKGQPREPQVYTLPPSREEMTKNQVSLTCLVKGFYPSDIAVEWESNGQPENNYKTTPPVLDSDGSFFLYSKLTVDKSRWQQGNVFSCSVMHEALHNHYTQKSLSLSPGK
notes: Made in HEK293T or CHO cells and purified on protein A; also called wild-type (background A64) ActRIIB-Fc; background A64 construct
B3: ActRIIB-Fc R40A (Fc fusion)
chain: B2 chain with R22A
notes: Mutation in the background ActRIIB-Fc
B4: ActRIIB-Fc K74A (Fc fusion)
chain: B2 chain with K56A
notes: as for B3
B5: ActRIIB-Fc L79A (Fc fusion)
chain: B2 chain with L61A
notes: as for B3
B6: ActRIIB-Fc D54A (Fc fusion)
chain: B2 chain with D36A
notes: as for B3
B7: ActRIIB-Fc WT (64R) (Fc fusion)
chain: B2 chain with A46R
notes: also called A64R
B8: ActRIIB-Fc F82A (Fc fusion)
chain: B2 chain with F64A
notes: as for B3
B9: ActRIIB-Fc K74F (Fc fusion)
chain: B2 chain with K56F
notes: as for B3
B10: ActRIIB-Fc K74I (Fc fusion)
chain: B2 chain with K56I
notes: as for B3
B11: ActRIIB-Fc K74Y (Fc fusion)
chain: B2 chain with K56Y
notes: as for B3
B12: ActRIIB-Fc D80I (Fc fusion)
chain: B2 chain with D62I
notes: as for B3
B13: ActRIIB-Fc D80K (Fc fusion)
chain: B2 chain with D62K
notes: as for B3
B14: ActRIIB-Fc D80G (Fc fusion)
chain: B2 chain with D62G
notes: as for B3
B15: ActRIIB-Fc R56A (Fc fusion)
chain: B2 chain with R38A
notes: as for B3
B16: ActRIIB-Fc D80F (Fc fusion)
chain: B2 chain with D62F
notes: as for B3
B17: ActRIIB-Fc W78A (Fc fusion)
chain: B2 chain with W60A
notes: as for B3
B18: ActRIIB-Fc D80A (Fc fusion)
chain: B2 chain with D62A
notes: as for B3
B19: ActRIIB-Fc E37A (Fc fusion)
chain: B2 chain with E19A
notes: as for B3
B20: ActRIIB-Fc D80M (Fc fusion)
chain: B2 chain with D62M
notes: as for B3
B21: ActRIIB-Fc D80R (Fc fusion)
chain: B2 chain with D62R
notes: as for B3
B22: ActRIIB-Fc D80N (Fc fusion)
chain: B2 chain with D62N
notes: as for B3
B23: ActRIIB-Fc K55A (Fc fusion)
chain: B2 chain with K37A
notes: as for B3

Substitutions are numbered along the chain they refer to. Numbers in names are those of the source.

For the first assay, the target named is T1, Activin A. Nature of the assay: BiaCore (SPR); ligand amine-coupled to CM5 chip, ActRIIB-Fc injected. How it is done:
(§1) GDF-11 or Activin A (“ActA”) were immobilized on a BiaCore CM5 chip using standard amine coupling procedure. The ActRIIB-Fc mutant or wild-type protein was loaded onto the system, and binding was measured.
A general note: In SPR one partner is held on a chip, and binding of the other changes the refractive index at the surface.
Broadly, the Kd is the concentration at which binding is half-saturated. A lower Kd goes with higher affinity. For B1, the dissociation constant (Kd) was about 26 nM.

For B2, binding was characterised by a dissociation constant (Kd) of 180 nM.

For the molecule B3, the binding result was “binds”.

B4: the Kd was determined as 4.35 nM.

B5: the binding result is “binds”.

Consider B6, for which the binding result is “binds”.

The target of a further assay is T2, GDF-11. The description is as above. The procedure:
as §1
In the case of B1, binding was put at a Kd of 19 nM.

B2 came in with a Kd of 260 nM. Against the preceding molecule, the Kd is about 14-fold higher.

As to B3, the binding result is reported as “binds”.

For the molecule B7, the Kd is 86 nM.

With B8, the binding result was “binds”.

As for B9, the binding result is on record as “binds”.

As for B4, the affinity, expressed as Kd, was 5.3 nM.

Consider B10, for which the binding result is given as “binds”.

Consider B11, for which the binding result is on record as “binds”.

With B12, the binding result is “binds”.

The next assay has as its target T1, Activin A. Nature of the assay: BiaCore, ligand immobilized on CM5 chip. The procedure: as §1
With B13, the binding result was “no binding”.

As to B14, the binding result was “no binding”.

Regarding B15, the binding result is “no binding”.

In the case of B9, the binding result is “no binding”.

Regarding B10, the binding result is given as “no binding”.

Turning to B16, the binding result is listed as “no binding”.

Take B17: the binding result is recorded as “no binding”.

For the molecule B18, the binding result is “no binding”.

For B19, the binding result is “no binding”.

Regarding B20, the binding result is “no binding”.

As for B21, the binding result is on record as “no binding”.

As for B11, the binding result is on record as “no binding”.

B22: the binding result is reported as “no binding”.

As to B12, the binding result is given as “no binding”.

Another assay addresses T2, GDF-11. The experiment in a line: BiaCore, ligand immobilized on CM5 chip. How it is done:
as §1
B13: the binding result was “no binding”.

B14: the binding result is “no binding”.

As for B15, the binding result is “no binding”.

Regarding B23, the binding result is on record as “no binding”.

Turning to B16, the binding result is “no binding”.

On to B5, for which the binding result is on record as “no binding”.

For the molecule B17, the binding result is “no binding”.

On to B18, for which the binding result was “no binding”.

With B19, the binding result was “no binding”.

In the case of B6, the binding result is listed as “no binding”.

Regarding B20, the binding result is listed as “no binding”.

Take B21: the binding result is given as “no binding”.

For the molecule B22, the binding result is “no binding”.
